Results from patent US20260216242A1, “ALPP-SPECIFIC VARIANT ANTIGEN BINDING MOLECULES” (ALMAC DISCOVERY LIMITED, priority 2022, published 2026).

T1: ALPI expressed on the surface of CHO cells (CHO-ALPI) (Homo sapiens, UniProt P09923)
T1 construct: expressed in transfected cells
T1 sequence (P09923 20-503 limits assumed): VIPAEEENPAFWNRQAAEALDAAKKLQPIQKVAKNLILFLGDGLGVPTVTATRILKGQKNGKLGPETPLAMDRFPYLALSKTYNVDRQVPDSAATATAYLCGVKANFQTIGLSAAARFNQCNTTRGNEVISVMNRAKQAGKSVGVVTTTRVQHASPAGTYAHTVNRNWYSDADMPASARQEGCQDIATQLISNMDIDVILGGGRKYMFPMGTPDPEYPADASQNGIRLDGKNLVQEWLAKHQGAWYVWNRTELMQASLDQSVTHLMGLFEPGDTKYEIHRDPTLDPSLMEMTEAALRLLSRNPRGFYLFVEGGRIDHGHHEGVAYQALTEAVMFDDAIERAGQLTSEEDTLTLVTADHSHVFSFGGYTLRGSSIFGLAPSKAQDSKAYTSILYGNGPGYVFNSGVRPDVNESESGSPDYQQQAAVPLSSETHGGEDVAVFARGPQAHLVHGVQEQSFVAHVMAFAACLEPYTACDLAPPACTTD

T2: ALPL expressed on the surface of CHO cells (CHO-ALPL) (Homo sapiens, UniProt P05186)
T2 construct: expressed in transfected cells
T2 sequence (P05186 18-501 limits assumed): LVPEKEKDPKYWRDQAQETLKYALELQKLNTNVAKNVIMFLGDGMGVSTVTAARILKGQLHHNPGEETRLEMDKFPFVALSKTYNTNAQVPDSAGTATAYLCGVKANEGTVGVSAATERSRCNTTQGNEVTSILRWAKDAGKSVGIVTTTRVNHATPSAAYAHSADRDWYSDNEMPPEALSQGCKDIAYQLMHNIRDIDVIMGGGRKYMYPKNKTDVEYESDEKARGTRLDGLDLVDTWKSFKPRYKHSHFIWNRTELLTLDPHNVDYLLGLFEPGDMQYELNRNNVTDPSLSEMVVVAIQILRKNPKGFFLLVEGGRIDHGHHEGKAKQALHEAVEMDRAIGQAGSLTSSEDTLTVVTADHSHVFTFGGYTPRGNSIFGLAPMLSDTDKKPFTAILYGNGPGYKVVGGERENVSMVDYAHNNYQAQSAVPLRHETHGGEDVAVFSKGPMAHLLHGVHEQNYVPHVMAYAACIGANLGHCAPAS


Legend:
[1] = biological target: T1, ALPI expressed on the surface of CHO cells (CHO-ALPI); assay: Cell-surface binding by flow cytometry, CHO-ALPI; conditions: for KDapp CHO-ALPI: VHH His proteins, up to 350 nM; for KDapp CHO-ALPI / binding to ALPI on CHO cells (in words): flow cytometry; for ALPI MFI as % of the ALPP MFI: VHH His at 350 nM; for binding to ALPI on CHO cells (in words): VHH proteins
Description: (§1) C-terminal His tagged VHH proteins were assessed for ALPP, ALPPL2, ALPI and ALPL cell-surface binding by flow cytometry. Binders encompassing different epitope bins were screened on CHO cells stably expressing ALPP, ALPPL2, ALPI or ALPL. High levels of cell-surface proteins expression were confirmed for each of the cell-lines by flow cytometry.
(§2) Cell surface binding of test agents to hALPP isoforms was characterized in four CHO-ALPP isoform stably transfected cell lines (CHO-ALPP, CHO-ALPPL2, CHO-ALPI and CHO-ALPL) and the resulting KDapp values determined. Adherent cells were detached from tissue culture flasks by incubating with 0.1% EDTA/PBS solution at 37° C. for ~10 minutes or until cells detached easily. Cells were re-suspended in ice-cold PBS/2% FCS in 15 ml tubes and centrifuged at 1700 rpm for 5 mins at 4° C. Supernatant was removed and the cell pellet re-suspended in PBS/2% FCS. A cell count was performed using a Chemometec Nucleocounter NC-202 and 2.5×10^5 cells were aliquoted per test sample into a 96 well plate. Cells were incubated with 100 μl of test agents at a range of concentrations, plus controls for 1 hr on ice. The sample plate was centrifuged at 1700 rpm for 5 mins at 4° C. The supernatant was removed, and a wash performed by re-suspending the cell pellets in 0.25 mL of ice-cold PBS/2% FCS using a multichannel pipette. Samples were again centrifuged at 1700 rpm for 5 min at 4° C. Supernatant was removed and two further washes performed as described. After the final wash and centrifugation step, excess liquid was removed by blotting the plate on tissue paper. Binding of VHH (His6 tagged) agents was determined by adding 100 μl of anti-x6His tag Ab (Abcam) per cell pellet sample as appropriate and incubating on ice for 30 mins. Wash steps were performed as described previously. Fitc-anti-mouse antibody (ThermoFisher) was used to detect binding of the VHH (His6 tagged) agents by incubating with the appropriate samples for 30 min on ice in the dark. Wash steps were performed as described previously. All cell pellets were finally re-suspended in […] of ice-cold PBS/2% FCS and left on ice in the dark prior to analysis on a Merck-Millipore Guava EasyCyte HT or Thermo Fisher Attune N×T flow cytometer.
(§3) VHH-hFc proteins were assessed for human ALPP, ALPPL2, ALPI and ALPL cell-surface binding by flow cytometry. Binders were screened on CHO cells stably expressing human ALPP, ALPPL2, ALPI or ALPL.
(§4) Cell surface binding of test agents to hALPP isoforms was characterized in four CHO-ALPP isoform transfectant cell lines (CHO-ALPP, CHO-ALPPL2, CHO-ALPI and CHO-ALPL) and the resulting KDapp values determined. Adherent cells were detached from tissue culture flasks by incubating with 0.1% EDTA/PBS solution at 37° C. for ~10 minutes or until cells detached easily. Cells were re-suspended in ice-cold PBS/2% FCS in 15 ml tubes and centrifuged at 1700 rpm for 5 mins at 4° C. Supernatant was removed and the cell pellet re-suspended in PBS/2% FCS. A cell count was performed using a Chemometec Nucleocounter NC-202 and 2.5×10^5 cells were aliquoted per test sample into a 96 well plate. Cells were incubated with 100 μl of test agents at a range of concentrations, plus controls for 1 hr on ice. The sample plate was centrifuged at 1700 rpm for 5 mins at 4° C. The supernatant was removed, and a wash performed by re-suspending the cell pellets in 0.25 mL of ice-cold PBS/2% FCS using a multichannel pipette. Samples were again centrifuged at 1700 rpm for 5 min at 4° C. Supernatant was removed and two further washes performed as described. After the final wash and centrifugation step, excess liquid was removed by blotting the plate on tissue paper. Binding of VHH-hFc agents was determined by adding 100 μl of Fitc-anti-human Ab (ThermoFisher) and incubating for 30 mins on ice in the dark. Wash steps were performed as described previously. […]

[2] = biological target: T2, ALPL expressed on the surface of CHO cells (CHO-ALPL); assay: Cell-surface binding by flow cytometry, CHO-ALPL; conditions: VHH His proteins
Description: as §1, §2, §3, §4

| KDapp CHO-ALPI [1] | KDapp CHO-ALPL [2] | ALPI MFI as % of the ALPP MFI [1] | binding to ALPI on CHO cells (in words) [1] | Molecule |
| --- | --- | --- | --- | --- |
| No binding | No binding |  |  | D10: ALPP targeting VHH domain, SEQ ID NO: 28 (protein) VHH: QVQLVESGGGLVQPGGSLRLSCAASGSIFSVNTMGWYRQAPGKQRDLVAVATSGGTIHYADSVKGRFTISRDNAKNTVYLQMNSLKPEDTAVYYCNLVVPYGMIAGDHDYWGQGTKVTVSS |
| Minimal | No binding | 1.3% | minimal binding | F08: ALPP/ALPPL2 targeting VHH domain, SEQ ID NO: 35 (protein) VHH: QVQLVESGGGSVQAGGSLRLSCAASGPSLSNYAMGWFRQAPGKEREFVAGISWGGGRTSYTDSVKGRFTISRDNAKNTVYLQMNNLKPEDTGVYYCAGRYGRGRNVEYEYDYWGQGTQVTVSS |
| No binding | No binding |  |  | C07: ALPP/ALPPL2 targeting VHH domain, SEQ ID NO: 25 (protein) VHH: QVQLVESGGGLVQAGESLRLACAASGTIFSGNAVGWYRQAPEKQREWVSSITDYGDTDYAEAVKGRFTISRDNAKNTVYLQMNSLKPEDTAVYYCYVYQRGESEEYWGQGTQVTVSS |
| No binding | No binding |  |  | E10: ALPP/ALPPL2 targeting VHH domain, SEQ ID NO: 31 (protein) VHH: QVQLVESGGGLVQAGGSLRLSCAVSGRALSDYNIGWFRQAPGKEREFVARKTWDGSSTRYDDSVKGRFTVSIEDAKNTAYLQMSSLKTEDTAVYYCAAGRYSRARGWEYDYWGQGTQVTVSS |

The remaining lines, values behind:

| Molecule | KDapp CHO-ALPI [1] | KDapp CHO-ALPL [2] | ALPI MFI as % of the ALPP MFI [1] | binding to ALPI on CHO cells (in words) [1] |
| --- | --- | --- | --- | --- |
| A06: ALPP/ALPPL2 targeting VHH domain, SEQ ID NO: 17; tested C-terminally His-tagged (protein, C-terminal His tag, tested C-terminally His-tagged) VHH: QVHLVESGGGLVQAGGSLRLSCAASGRTFLSMGWFRQAPGKEREFVAAISWTGGSTGYADSVKGRFTISRESDKETMYLQMNSLKPEDTAVYYCAARGDVYYGGDDATRYKYWGQGTQVTVSS | No binding | No binding |  |  |
| F05: ALPP/ALPPL2 targeting VHH domain, SEQ ID NO: 34 (protein) VHH: QVQLVESGGGLVQAGGSLRLSCAASGRAFGDYNIGWFRQAPGKEREFVARRTWDGSSTRYDDSVKGRFTVSIDNAKNTAYLQMNSLKTEDTAVYYCAAGRYSRVRGWEYDYWGQGTQVTVSS | No binding | No binding |  |  |
| A05: ALPP/ALPPL2 targeting VHH domain, SEQ ID NO: 16; tested C-terminally His-tagged (protein, C-terminal His tag, tested C-terminally His-tagged) VHH: QVQLVESGGGLVQAGASLTLSCAASGFTFNTRSIVWFRQAPGKEREAVSCISKVAGSTYYGDSVQGRFSSSTDNAKNTVSLQMNSLKPEDTAVYTCAASFAPNCYGWSVAANMEYWGEGTMVTVSS | No binding | No binding |  |  |
| E06: ALPP/ALPPL2 targeting VHH domain, SEQ ID NO: 30 (protein) VHH: QVHLVESGGGLVQAGGSLRLSCAASRRSFSEYAMGWFRQAPGKEREFVAAIGWSGVIEYADSVKGRFTISRDNAKDTVYLQMNSLKPEDTAVYYCAAGLGIRVVSQTPAYWGQGTQVTVSS | No binding | No binding |  |  |
| B01: ALPP/ALPPL2 targeting VHH domain, SEQ ID NO: 20 (protein) VHH: QVQLVESGGGLVQAGGSLRLSCEVTRSPMPIDTMAWYRQAPGRQRELVAIISRSGSTNYADSVKGRFTISRNDTKSTMYKSTMYLKMNTLELEDTGVYYCNAVGLWNGAEYWGQGTQVTVSS | No binding | No binding |  |  |
| D04: ALPP/ALPPL2 targeting VHH domain, SEQ ID NO: 26 (protein) VHH: QVQLVESGGGLVQPGGSLRLSCAASESTFSINVMGWYRQAPGKQRELVATITSGDITNYADSVKGRFTISRDNAENTVYLRTNSLKPEDTAVYYCNARGEYHSGNEYDYWGQGTQVTVSS | Minimal | No binding | 9.5% | weak binding |
